The values below come from the DeepSol protein solubility set.

This data set can be described thus: soluble on expression in E. coli; label from the status in PepcDB or PDB records.
Take “MGSDKIHHHHHHLTLMGLSVTDYDSEMPDATEPGTTERSLVELLLAEGPSTRLELQAKLGVSRPTLSSAVNKLLSLGLLQEQGTAAYGAGRNGRPQALLAPNRAMGAAVGIELGKAQVAVTILAIDGTVHAQKVTSTSPGTTLQRRLNIALGSVGTFISSNILNPESVLGVGVGVSGLHPDARPAGGSALVDPPGAKLDKLRTLLAAPVVWDNNTRMATFRHLGGSGLDSPGAVLYVVLSAGVSAGIVDGGEVLRGRGAAGELGHVCLDPEGPVCGCGSRGCLEAYVGVEAVLRSARGKGATVADLEELAAVVQSGDADALAVIGLVGRMLGIGLNNAAMLVDPRRIILTGPLLSLGPALVSAATEELRIRRMAVTLGVPDVVAEIGSPFDSSHGAALTALRRWGPGFMGMLTQNGIATTG”: the “soluble on expression in E. coli” value is listed as “not soluble”. For the sequence “MPIRGFHYRGDEAIYPASVVKLFYLVAALEWLQQGMIQPSAELDRALRDMIVDSSNDATGYIVDLLSGTTSGPELGDGPFKTWQFQRNIVNRYYQSLMWPELQPINVNQKTWGDGPYGRERAFYGPEFENRNKLTTNATARLLHAIAGGVAVSPSASQRMLNLLNRPFDPRSLAEDPENQVTGFLGQDLPQGSQLWSKAGWMSRVRHDAAYLEIPGLPPHLLVAFTEGKEHANNEAILPFIAQQVRQQLQPALEHHHHHH”, the “soluble on expression in E. coli” value was “not soluble”. As to “MSKYSDAKELASLTLGKKTEYANQYDPSLLQPVPRSLNRNDLHLSATLPFQGCDIWTLYELSWLNQKGLPQVAIGEVSIPATSANLIESKSFKLYLNSYNQTRFASWDEVQTRLVHDLSACAGETVTVNVKSLNEYTAEPIVTMQGECIDDQDIEIANYEFDDALLQGAAQGEEVSEVLHSHLLKSNCLITNQPDWGSVEIAYHGAKMNREALLRYLVSFREHNEFHEQCVERIFTDIMRYCQPQSLTVYARYTRRGGLDINPFRSSHQSAPNHNQRMARQ”, the “soluble on expression in E. coli” value is reported as “not soluble”. As for “MGHHHHHHSHNEPEDSKLRFETYQLIWQQMKSENERLQEELNKNLFDNLIEFLQKSHSGFQKNSRDLGGQIKLREIPTAALVLGVNVTDHDLTFGSLTEALQNNVTPYVVSLQAKDCPDMKHFLQKLISQLMDCCVDIKSKEEESVHVTQRKTHYSMDSLSSWYMTVTQKTDP”, the “soluble on expression in E. coli” value was “not soluble”. Regarding “AIAENSSKEDYKIQSFDLETQKLLKTALKDPGSVDLEKVSSVIVDQSLKDQVFSREAGRICYTIVQAEAKQTNGSVFRRNLLNRLQQEFKAREETRKRSTQEWVCLVSFICNIFDYLKVNNMPMVALVHPVYDCLFRLAQSDALKNEEEVDCLVLQLHRIGDQLEKMNVQLMDELFNLLRDGFLLQEDLSSMGRLLLLEILEFRAGGWKLSDTAQKYYYSEVTD”, the “soluble on expression in E. coli” value was “soluble”. To “MNTFQMRDKLKERLSHLDVDFKFNREEETLRIYRTDNNKGITIKLNAIVAKYEDKKEKIVDEIVYYVDEAIAQMADKTLESISSSQIMPVIRATSFDKKTKQGVPFIYDEHTAETAVYYAVDLGKSYRLIDESMLEDLKLTEQQIREMSLFNVRKLSNSYTTDEVKGNIFYFINSNDGYDASRILNTAFLNEIEAQCQGEMLVAVPHQDVLIIADIRNKTGYDVMAHLTMEFFTKGLVPITSLSFGYKQGHLEPIFILGKNNKQK” belongs “not soluble”; to “MFRLRLISGFNFAPIIADAIVDLSKDFFQSDNSEVCCGQILYLAISDEEGPGKPILDSKHVEVILTLDLPEDMDVYEKFGLSAYRQHILLRITQEARDQNALLTIKDLVKLLKSSYSTIIRDLKYFREKGLYVPLRGIVKDIGPSSHKSKIVELYLKGYTTTEIQRSTRHSLQSIERYIKDFSRVSILTQKGESIDNIRLIVGISERLVKEYQELFIKYKDGDNKQRVEELIDNITVYDSPMSFKKNSGMRM”, “not soluble”. Under “LSDVLVPTAGGLSSDLSAAVAKALEETFGVAVSLLHVVDPGEEESGRQFMYEWAAEHGLSDAELRIETGDIEATIERLGRDYSLVIVGATERGLLSRIVRGSLVFDVIETLDTPVLLAERPSSRSLRERLFGRE” stands “not soluble”; under “MGSDKIHHHHHHMIFSNLKLNDNEPIYIQLKNYISDMISKGLIPDNSKLPSTRELSQLLQVSRNSVVLTYEELKSEGLIYSISGKGTFVKSKNKSSNTTWSLNWDCLENTYSKKANELDIIKSEIPWSSDLISFKSISPDGDLFDMEELKKSFLNRISLEGHKLLNYGYAQGYKPLIDYLLEYMTNKGADISNKDILITNGFTEGFDIIMSSFTQEKDYIICENPTHNTAIKIMKSHNLNILGVDINEDGLDFNMLEDNLIKYKNKIKFAYITPSYHNPTGIVMTPENRYKFYNLMKKYNIAIIEDGFNEELLYNSSHIFPICSLDNMNNGVVYIGSFSKILFPGMRIGWIFADKKVINKLESVKRCRNIHVSFLDQGILFDYLSNGGFEKYIKKIRKFYGDKFNFAYKCIKKYIKTEYILGDGGLHIFIKLKNIDTRVLLEKCYEKNVIFMPGDLFFTDNSGFDTLRLGFSRLSFEDIEIGIKIIGETINEMF”, “not soluble”.

With “MNAAIHPRPAAERAPSYYAATLNEETDYPTLLGAVTVDIAIIGGGFTGVATAVELAERGYKVALVETHRIGWGASGRNGGQVTGSLSGDAAMHKQMRQWLGAEVEDFIWHLRWRGHEIIRQRVEKYGIACDLRHGHLHAAMKASHMGELQASYEEAVRRGMGDQVVLLDKAGVQAHLETELYCGALKNTRNMHLHPLNLCIGEARAAAGLGALIFEHSEVLDIVHGPRPAVITREGRIEAQQILLAGDVYHKLERRQLKGMIFPAMGGIVTTRPLGELAREINPQGLAVYDCRFVLDYYRPTADGRLLFGGGANYSGRDSRDITAELRPCIERTFPRLKGVEIEFQWSCAMGIVMNRIPQLGKLSDNVWYCQGYSGHGVATSHIMGEIMAKAMSGSLEQFDTFARCKHLRVPLGDLFGNPMLAAGMWYYQLMEKLRLEHHHHHH”, the “soluble on expression in E. coli” value is “not soluble”. To “MQAAPQGGIYNYFHSLLPPLSLAPFLPRTPLPSTSLFCKGLKKERYKPRFRPRECHCSVENLHLGHEMQNSHRTICKSALQLLPPSWSDPFRRRDADFPPNSPSPARPSSENASNRAKEKVHLSPIIALCISHHTSQEKLFTQHLMNMPTGETHKSPPS” belongs “not soluble”; to “AAGKDFVVKGKDGWAIIAGYHWFDEWGRDTFISLEGLLLVDKQYDIAKEIILKYLNLEKRGMLPNNFISYNGEPVYRGVDISLWAINAIYKTYIYSRDKNFIRKVVDKVLDIIDWYSKGNGVIYNVDNLIFHKGAPRTWMDASYDSRIVTPREGAAVEINALWYNALRVTEFLLNELGEKAEYLSEKAESVKKSFAEKFISQDGLYDYINWDNIPDKSIRPNQIFSISLPFPIIDDKSIASKILTLIESKLLRQYGLSSLSREDPNYKPVYKGDRRSRESLPQWTHMALVTRRLC”, “not soluble”; to “EVKEEDAFYSKKCKLFYKKDNEFKEKGIGTLHLKPTANQKTQLLVRADTNLGNILLNVLIPPNMPCTRTGKNNVLIVCVPNPPIDEKNATMPVTMLIRVKTSEDADELHKILLEKKDA”, “soluble”. Turning to “RILDIDPVAQTAVVEPGVVCDALRDAAAEFGLTYGPDPSTHSRCTIGGMVANNACGSHSVAFGTAAENLVDVTLMLSDGREVTVTKDGCDDAEINQKLTDLASKNQDLISKELGRFPRQVSGYGLHYLAHDMAKAMAGTEGTIGIITRLTVKLVPTP”, the “soluble on expression in E. coli” value is reported as “not soluble”.

Consider “MSLRVAIEGCTQGHGTLDAIYASVEESCKQRGWDGVDILIIGGDFQSVRNAEDLSIMSCPVKYRHLGDFPKYYSGERKAPYLTIFIAGNHEASSHLWELYYGGWVAPNIYYMGAANILRFGPLRIAGLSGIWKGFDYRKPHHERLPFSGGDVKSWYHVREIDVRKLLQVQTQVDVGLSHDWPRAVELHGDHEWLFRKKPDFRNESRDGTLGSVAAEYVMDRLRPPHWFSAHMHVKFAAIKTYSEAQPEEGHHHHHH”, for which the “soluble on expression in E. coli” value is listed as “soluble”. To “MVRIYTLTLAPSLDSATITPQIYPEGKLRCTAPVFEPGGGGINVARAIAHLGGSATAIFPAGGATGEHLVSLLADENVPVATVEAKDWTRQNLHVHVEASGEQYRFVMPGAALNEDEFRQLEEQVLEIESGAILVISGSLPPGVKLEKLTQLISAAQKQGIRCIVDSSGEALSAALAIGNIELVKPNQKELSALVNRELTQPDDVRKAAQEIVNSGKAKRVVVSLGPQGALGVDSENCIQVVPPPVKSQSTVGAGDSMVGAMTLKLAENASLEEMVRFGVAAGSAATLNQGTRLCSHDDTQKIYAYLSR” belongs “soluble”; to “SDEEKKRRAATARRQHLKSAMLQLAVTEIEKEAAAKEVEKQNYLAEHSPPLSLPGSMQELQELSKKLHAKIDSVDEERYDTEVKLQKTNKELEDLSQKLFDLRGKFKRPPLRRVRMSADAMLRALLGSKHKVNMDLR”, “soluble”.

For the sequence “MQLKGKTAIVTGSSRGLGKAIAWKLGNMGANIVLNGSPASTSLDATAEEFKAAGINVVVAKGDVKNPEDVENMVKTAMDAFGRIDILVNNAGITRDTLMLKMSEKDWDDVLNTNLKSAYLCTKAVSKIMLKQKSGKIINITSIAGIIGNAGQANYAASKAGLIGFTKSIAKEFAAKGIYCNAVAPGIIKTDMTDVLPDKVKEMYLNNIPLKRFGTPEEVANVVGFLASDDSNYITGQVINIDGGLVM”, the “soluble on expression in E. coli” value was “soluble”.

Turning to “MTLTAQKNSWWVGAHAGREYFNNTSEDMKKGWNTGVVLRYYFSDRIYSLATLNYGFASSLSPSGYFDELGNSPNARFRRHSILPAVGLGYEFFQGDFYSCYAQGGVGYGMEYNSVSYPQEYDVSVKRFGWLAELGGDYFLRDNLSLGISVAHLRVGWRNNWTANVKLSICLL”, the “soluble on expression in E. coli” value is given as “not soluble”. “GPGSMPPSTAAPYALRTDKLKPLEGYVAGCSVSPAEVASQVASSLQPVVLAICGSFNPIHNAHLKLYDAAKRSVDGADGRVVLGGFLSPVGDAYGKPGLRSAADRVHIMRKALCHHPDLNVDTWECQQPVYMRTFFVLQALEEHINAWYAESEPAAVEWLASHDRRVRVAFVCGADLFSSFWIPGCWQLRLLRQLLDSFHLVVVHRDGGRGCVRGADDFAHVCQTAPLLSETAEGGEKIEIDMSQYTFTFATFSAPDDTSSTAVRAAAMELARTPQGDAVTRAALQSRLRAMLPEAAVQSVVELYGKVLTS”: the “soluble on expression in E. coli” value is “not soluble”.

In the case of “MQREKVDVLVIGAGPAGTVAASLVNKSGFKVKIVEKQKFPRFVIGESLLPRCMEHLDEAGFLDAVKAQGFQQKFGAKFVRGKEIADFNFSDQFSNGWNWTWQVPRGNFDKTLADEAARQGVDVEYEVGVTDIKFFGTDSVTTIEDINGNKREIEARFIIDASGYGRVIPRMFGLDKPSGFESRRTLFTHIKDVKRPVAAEMEGNRITAVVHKPKVWIWVIPFSNGNTSVGFVGEPSYFDEYTGTPEERMRAMIANEGHIAERFKSEEFLFEPRTIEGYAISASKLYGDGFVLTGNATEFLDPIFSSGATFAMESGSKGGKLAVQFLKGEEVNWEKDFVEHMMQGIDTFRSFVTGWYDGTLHAVFFAKNPDPDHKRMICSVLAGYVWDKNNPFVKKHNTILKTLAKVIQMGEEALEHHHHHH”, the “soluble on expression in E. coli” value is “soluble”.

In the case of “MKDLLTRRFVLNSKEVREGDVFVAVKGKRFDGHDFIDEALRNGAYAIIAERKTVNSDRIFLVESSVDTLAKLAREKLGNFSGTVVGVTGSSGKTTTKEILYNLLKNKRSVFKTPGNMNTEYGLPLSILNDYKGEEILVLEMAASRPGDIAHLCKIAPPDVAVLLNVGSAHLEFFGTRERIMETKMEIIKHSKENAIAVTLFDDPDLRKEVPRYRNTLFFGKEGGDSVLKDWWYYEGSTIAEFEAFDSLFTVKLSGYWNGGQLLNIAASLCVMRTLGETVDIFDLASLKTVPGRFNVREKKGVLIVDDTYNASPEAFQTSIEALLRFPGKKFAVVGAMKELGERSKEFHEELGERLNVLDGVYVFLSEPEAEWIKSKKIILKSDDPEKIAKDLATRVKKGDVVLFKASRAVRIERVLEMFEKELEKR”, the “soluble on expression in E. coli” value is “soluble”.
